Read-outs that look alike come from different tables or passages of the source.
B1: MccB-His6 (enzyme, E. coli, UniProt Q47506 1-350, looked up)
chain: MDYILGRYVKIARYGSGGLVGGGGKEQYVENLVLWENIIKTAYCFITPSSYTAALETANIPEKDFSNCFRFLKENFFIIPGEYNNSTENNRYSRNFLHYQSYGANPVLVQDKLKNAKVVILGCGGIGNHVSVILATSGIGEIILIDNDQIENTNLTRQVLFSEDDVGKNKTEVIKRELLKRNSEISVSEIALNINDYTDLHKVPEADIWVVSADHPFNLINWVNKYCVRANQPYINAGYVNDIAVFGPLYVPGKTGCYECQKVVADLYGSEKENIDHKIKLINSRFKPATFAPVNNVAAALCAADVIKFIGKYSEPLSLNKRIGIWSDEIKIHSQNMGRSPVCSVCGNRM
B2: MccB (N-terminal His6-tag removed) (enzyme, E. coli, UniProt Q47506 1-350, looked up)
chain: MDYILGRYVKIARYGSGGLVGGGGKEQYVENLVLWENIIKTAYCFITPSSYTAALETANIPEKDFSNCFRFLKENFFIIPGEYNNSTENNRYSRNFLHYQSYGANPVLVQDKLKNAKVVILGCGGIGNHVSVILATSGIGEIILIDNDQIENTNLTRQVLFSEDDVGKNKTEVIKRELLKRNSEISVSEIALNINDYTDLHKVPEADIWVVSADHPFNLINWVNKYCVRANQPYINAGYVNDIAVFGPLYVPGKTGCYECQKVVADLYGSEKENIDHKIKLINSRFKPATFAPVNNVAAALCAADVIKFIGKYSEPLSLNKRIGIWSDEIKIHSQNMGRSPVCSVCGNRM

Tests used:
[1] = test system: Nc1ncnc2c1ncn2[C@@H]1O[C@H](COP(=O)(O)OP(=O)(O)OP(=O)(O)O)[C@@H](O)[C@H]1O; assay: purified protein; assay type: biochemical, Escherichia coli; conditions: 75 mM Tris-HCl pH 8.0, 5 mM MgCl2, 2.5 mM TCEP, co-substrate MccA
MccB ΔNTE (E. coli) = assay: AUC
crystal structure [2] = biological target: the molecule itself; assay: crystal structure
crystal structure [3] = biological target: the molecule itself; assay: crystal structure; remark: listed apart in the source
MccB K10A (E. coli) = biological target: T1, MccB K10A (E. coli) (UniProt Q47506)
T1 sequence: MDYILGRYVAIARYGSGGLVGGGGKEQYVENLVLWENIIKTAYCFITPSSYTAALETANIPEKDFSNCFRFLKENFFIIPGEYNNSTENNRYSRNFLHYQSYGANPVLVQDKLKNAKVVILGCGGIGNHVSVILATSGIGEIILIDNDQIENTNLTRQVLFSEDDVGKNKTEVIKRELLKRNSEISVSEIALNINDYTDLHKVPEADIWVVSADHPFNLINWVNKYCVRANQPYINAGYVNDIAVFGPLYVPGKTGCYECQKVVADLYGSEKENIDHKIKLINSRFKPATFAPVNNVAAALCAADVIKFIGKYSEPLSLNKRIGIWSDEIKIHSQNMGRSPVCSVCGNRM

[4] = biological target: B2; assay: crystal structure

Molecule | Km [1] [µM] | kcat [1] [s⁻¹] | kcat/Km [1] [M⁻¹ s⁻¹] | further results
MccB (Escherichia coli; R94A) | 380 ± 130 | 0.00125 ± 0.000917 | 2.22 | 
MccB (Escherichia coli; Y239A) | 380 ± 190 | 5.56e-06 ± 2.22e-06 | 0.0139 | 
MccB (Escherichia coli; C123L) | 220 ± 80 | 0.000306 ± 8.33e-05 | 2.22 | 
MccB (Escherichia coli; N241A) | 400 ± 120 | 0.000472 ± 0.000139 | 1.11 | 
MccB (Escherichia coli; K10A) | 120 ± 20 | 0.00103 ± 0.000139 | 8.33 | 
MccB ΔNTE (domain or fragment) |  |  |  | stoichiometry N (MccB ΔNTE (E. coli)): 2
B1 |  |  |  | binding result (crystal structure [2]): binds
B2 |  |  |  | binding result (crystal structure [3]): binds
MRTGNAN [SeMet-MccA] |  |  |  | Km for MccA in the MccB-catalysed reaction (HPLC of product formation) (MccB K10A (E. coli)): 370 µM; binding result [4]: binds

From publication PMC2711183 (The EMBO journal, 2009)
